Molecular target: Skeletal muscle actin (chicken, UniProt P68139 1-377)
Test: cell-based or functional assay

Row | Binder | Km for skeletal actin of the actin-activated ATPase activity (Michaelis-Menten fit, 30 °C, 5 mM KCl) [µM]
1 | Full-length PfMyoA (Plasmodium falciparum myosin A) heavy chain, wild type, co-expressed with the light chains PfMTIP and PfELC (complex, phosphoserine at 19 (96 ± 1% of the peptides); biotin on the biotin carboxyl carrier protein segment) chain 1: MAVTNEEIKTASKIVRRVSNVEAFDKSGSVFKGYQIWTDISPTIENDPNIMFVKCVVQQGSKKEKLTVVQIDPPGTGTPYDIDPTHAWNCNSQVDPMSFGDIGLLNHTNIPCVLDFLKHRYLKNQIYTTAVPLIVAINPYKDLGNTTNEWIRRYRDTADHTKLPPHVFTCAREALSNLHGVNKSQTIIVSGESGAGKTEATKQIMRYFASSKSGNMDLRIQTAIMAANPVLEAFGNAKTIRNNNSSRFGRFMQLVISHEGGIRYGSVVAFLLEKSRIITQDDNERSYHIFYQFLKGANSTMKSKFGLKGVTEYKLLNPNSTEVSGVDDVKDFEEVIESLKNMELSESDIEVIFSIVAGILTLGNVRLIEKQEAGLSDAAAIMDEDMGVFNKACELMYLDPELIKREILIKVTVAGGTKIEGRWNKNDAEVLKSSLCKAMYEKLFLWIIRHLNSRIEPEGGFKTFMGMLDIFGFEVFKNNSLEQLFINITNEMLQKNFVDIVFERESKLYKDEGISTAELKYTSNKEVINVLCEKGKSVLSYLEDQCLAPGGTDEKFVSSCATNLKENNKFTPAKVASNKNFIIQHTIGPIQYCAESFLLKNKDVLRGDLVEVIKDSPNPIVQQLFEGQVIEKGKIAKGSLIGSQFLNQLTSLMNLINSTEPHFIRCIKPNENKKPLEWCEPKILIQLHALSILEALVLRQLGYSYRRTFEEFLYQYKFVDIAAAEDSSVENQNKCVNILKLSGLSESMYKIGKSMVFLKQEGAKILTKIQREKLVEWENCVSVIEAAILKHKYKQKVNKNIPSLLRVQAHIRKKMVAQ chain 2: MKQECNVCYFNLPDPESTLGPYDNELNYFTWGPGFEYEPEPQRKPLSIEESFENSEESEESVADIQQLEEKVDESDVRIYFNEKSSGGKISIDNASYNARKLGLAPSSIDEKKIKELYGDNLTYEQYLEYLSICVHDKDNVEELIKMFAHFDNNCTGYLTKSQMKNILTTWGDALTDQEAIDALNAFSSEDNIDYKLFCEDILQ chain 3: MASDMEEKFREAFILFSSCSDHIEMYKFFELMNSFGIILTNDEKAALPNDINMDYWLNFAKKHYNYEQPFKHINNVNEQNTNVQIKIDNFLGIMKALDTRLTESDLNILLQITNPENKSTLNLKTVSQKLTESI | 30.3
2 | Full-length PfMyoA heavy chain K764E (charge reversal in the converter), co-expressed with the light chains PfMTIP and PfELC (complex, biotin on the biotin carboxyl carrier protein segment) chain 1: MAVTNEEIKTASKIVRRVSNVEAFDKSGSVFKGYQIWTDISPTIENDPNIMFVKCVVQQGSKKEKLTVVQIDPPGTGTPYDIDPTHAWNCNSQVDPMSFGDIGLLNHTNIPCVLDFLKHRYLKNQIYTTAVPLIVAINPYKDLGNTTNEWIRRYRDTADHTKLPPHVFTCAREALSNLHGVNKSQTIIVSGESGAGKTEATKQIMRYFASSKSGNMDLRIQTAIMAANPVLEAFGNAKTIRNNNSSRFGRFMQLVISHEGGIRYGSVVAFLLEKSRIITQDDNERSYHIFYQFLKGANSTMKSKFGLKGVTEYKLLNPNSTEVSGVDDVKDFEEVIESLKNMELSESDIEVIFSIVAGILTLGNVRLIEKQEAGLSDAAAIMDEDMGVFNKACELMYLDPELIKREILIKVTVAGGTKIEGRWNKNDAEVLKSSLCKAMYEKLFLWIIRHLNSRIEPEGGFKTFMGMLDIFGFEVFKNNSLEQLFINITNEMLQKNFVDIVFERESKLYKDEGISTAELKYTSNKEVINVLCEKGKSVLSYLEDQCLAPGGTDEKFVSSCATNLKENNKFTPAKVASNKNFIIQHTIGPIQYCAESFLLKNKDVLRGDLVEVIKDSPNPIVQQLFEGQVIEKGKIAKGSLIGSQFLNQLTSLMNLINSTEPHFIRCIKPNENKKPLEWCEPKILIQLHALSILEALVLRQLGYSYRRTFEEFLYQYKFVDIAAAEDSSVENQNKCVNILKLSGLSESMYKIGKSMVFLKQEGAEILTKIQREKLVEWENCVSVIEAAILKHKYKQKVNKNIPSLLRVQAHIRKKMVAQ chain 2: MKQECNVCYFNLPDPESTLGPYDNELNYFTWGPGFEYEPEPQRKPLSIEESFENSEESEESVADIQQLEEKVDESDVRIYFNEKSSGGKISIDNASYNARKLGLAPSSIDEKKIKELYGDNLTYEQYLEYLSICVHDKDNVEELIKMFAHFDNNCTGYLTKSQMKNILTTWGDALTDQEAIDALNAFSSEDNIDYKLFCEDILQ chain 3: MASDMEEKFREAFILFSSCSDHIEMYKFFELMNSFGIILTNDEKAALPNDINMDYWLNFAKKHYNYEQPFKHINNVNEQNTNVQIKIDNFLGIMKALDTRLTESDLNILLQITNPENKSTLNLKTVSQKLTESI | 18.2
3 | Full-length PfMyoA heavy chain S19A (phospho-null), co-expressed with the light chains PfMTIP and PfELC (complex, biotin on the biotin carboxyl carrier protein segment) chain 1: MAVTNEEIKTASKIVRRVANVEAFDKSGSVFKGYQIWTDISPTIENDPNIMFVKCVVQQGSKKEKLTVVQIDPPGTGTPYDIDPTHAWNCNSQVDPMSFGDIGLLNHTNIPCVLDFLKHRYLKNQIYTTAVPLIVAINPYKDLGNTTNEWIRRYRDTADHTKLPPHVFTCAREALSNLHGVNKSQTIIVSGESGAGKTEATKQIMRYFASSKSGNMDLRIQTAIMAANPVLEAFGNAKTIRNNNSSRFGRFMQLVISHEGGIRYGSVVAFLLEKSRIITQDDNERSYHIFYQFLKGANSTMKSKFGLKGVTEYKLLNPNSTEVSGVDDVKDFEEVIESLKNMELSESDIEVIFSIVAGILTLGNVRLIEKQEAGLSDAAAIMDEDMGVFNKACELMYLDPELIKREILIKVTVAGGTKIEGRWNKNDAEVLKSSLCKAMYEKLFLWIIRHLNSRIEPEGGFKTFMGMLDIFGFEVFKNNSLEQLFINITNEMLQKNFVDIVFERESKLYKDEGISTAELKYTSNKEVINVLCEKGKSVLSYLEDQCLAPGGTDEKFVSSCATNLKENNKFTPAKVASNKNFIIQHTIGPIQYCAESFLLKNKDVLRGDLVEVIKDSPNPIVQQLFEGQVIEKGKIAKGSLIGSQFLNQLTSLMNLINSTEPHFIRCIKPNENKKPLEWCEPKILIQLHALSILEALVLRQLGYSYRRTFEEFLYQYKFVDIAAAEDSSVENQNKCVNILKLSGLSESMYKIGKSMVFLKQEGAKILTKIQREKLVEWENCVSVIEAAILKHKYKQKVNKNIPSLLRVQAHIRKKMVAQ chain 2: MKQECNVCYFNLPDPESTLGPYDNELNYFTWGPGFEYEPEPQRKPLSIEESFENSEESEESVADIQQLEEKVDESDVRIYFNEKSSGGKISIDNASYNARKLGLAPSSIDEKKIKELYGDNLTYEQYLEYLSICVHDKDNVEELIKMFAHFDNNCTGYLTKSQMKNILTTWGDALTDQEAIDALNAFSSEDNIDYKLFCEDILQ chain 3: MASDMEEKFREAFILFSSCSDHIEMYKFFELMNSFGIILTNDEKAALPNDINMDYWLNFAKKHYNYEQPFKHINNVNEQNTNVQIKIDNFLGIMKALDTRLTESDLNILLQITNPENKSTLNLKTVSQKLTESI | 8.5
4 | ΔN version of full-length PfMyoA heavy chain (residues Ala2 through Ser19 removed), co-expressed wit (complex, biotin on the biotin carboxyl carrier protein segment) chain 1: MNVEAFDKSGSVFKGYQIWTDISPTIENDPNIMFVKCVVQQGSKKEKLTVVQIDPPGTGTPYDIDPTHAWNCNSQVDPMSFGDIGLLNHTNIPCVLDFLKHRYLKNQIYTTAVPLIVAINPYKDLGNTTNEWIRRYRDTADHTKLPPHVFTCAREALSNLHGVNKSQTIIVSGESGAGKTEATKQIMRYFASSKSGNMDLRIQTAIMAANPVLEAFGNAKTIRNNNSSRFGRFMQLVISHEGGIRYGSVVAFLLEKSRIITQDDNERSYHIFYQFLKGANSTMKSKFGLKGVTEYKLLNPNSTEVSGVDDVKDFEEVIESLKNMELSESDIEVIFSIVAGILTLGNVRLIEKQEAGLSDAAAIMDEDMGVFNKACELMYLDPELIKREILIKVTVAGGTKIEGRWNKNDAEVLKSSLCKAMYEKLFLWIIRHLNSRIEPEGGFKTFMGMLDIFGFEVFKNNSLEQLFINITNEMLQKNFVDIVFERESKLYKDEGISTAELKYTSNKEVINVLCEKGKSVLSYLEDQCLAPGGTDEKFVSSCATNLKENNKFTPAKVASNKNFIIQHTIGPIQYCAESFLLKNKDVLRGDLVEVIKDSPNPIVQQLFEGQVIEKGKIAKGSLIGSQFLNQLTSLMNLINSTEPHFIRCIKPNENKKPLEWCEPKILIQLHALSILEALVLRQLGYSYRRTFEEFLYQYKFVDIAAAEDSSVENQNKCVNILKLSGLSESMYKIGKSMVFLKQEGAKILTKIQREKLVEWENCVSVIEAAILKHKYKQKVNKNIPSLLRVQAHIRKKMVAQ chain 2: MKQECNVCYFNLPDPESTLGPYDNELNYFTWGPGFEYEPEPQRKPLSIEESFENSEESEESVADIQQLEEKVDESDVRIYFNEKSSGGKISIDNASYNARKLGLAPSSIDEKKIKELYGDNLTYEQYLEYLSICVHDKDNVEELIKMFAHFDNNCTGYLTKSQMKNILTTWGDALTDQEAIDALNAFSSEDNIDYKLFCEDILQ chain 3: MASDMEEKFREAFILFSSCSDHIEMYKFFELMNSFGIILTNDEKAALPNDINMDYWLNFAKKHYNYEQPFKHINNVNEQNTNVQIKIDNFLGIMKALDTRLTESDLNILLQITNPENKSTLNLKTVSQKLTESI | 7.34
